Reference: the supplement of paper PMC10567573

B1: STK38L (parent)
chain: FCIDSENRIGNSGVEEIKGHPFFE
B2: TRIM14 (parent)
chain: YARTPTLDPDTMHARLRLSADRLT

Variants of: B1
Experiment: protein stability index of a GFP-peptide fusion (GPS, HEK-293T) (PSI 1-6); higher = more stable
Conditions: c terminus: a fixed tail appended
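Further: lentivirally expressed fusions sorted by FACS into six bins by GFP to DsRed ratio, PSI derived from sequencing read proportions per bin multiplied by bin number.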

Protein stability index, by site and new letter:
G10: H 2.71; I 1.87; D 2.75; F 1.57; E 2.54; C 2.32; A 2.27
D4: G 2; N 1.89; K 2.83; M 2.86; R 1.7; P 3.47; W 1.84; F 1.46; S 1.3; Q 2.78; L 1.25; T 2.44; V 2.22; A 2.09; E 2.91; H 2.8; I 2.24; Y 2.07
I9: K 2.19; G 2.58; V 2.73; E 3.42; M 2.03; P 3.17; R 2.71; C 2.38; W 1.58; S 2.82; F 1.9; N 2.2; L 1.99; Y 2.58; Q 2.65; H 2.9; T 3.21
I3: R 2.49; H 2.75; K 2.5; S 2.3; Q 3.06; T 3.6; W 2.19; N 3.43; D 4.02; L 2.57; C 1.96; M 2.9; V 3.26; E 3.95; P 1.85; A 2.04; Y 2.16; F 2.23; G 3.29
F1: M 4.78; I 3.24; T 4.42; Q 4.91; Y 2.48; W 3.19; A 4.85; V 3.77; L 3.66; G 4.26; C 2.84; K 4.3; E 4.61; S 4.34; H 4.55; P 4.45; R 5.09; D 4.9; N 4.4
C2: A 2.58; R 3; D 3.12; I 2.69; Y 2.61; P 2.39; L 2.94; M 3.58; E 4.7; V 2.03; W 2.62; K 3.37; Q 2.33; S 3.61; F 3.12; N 2.93; H 1.99; G 4.21; T 3.25
E6: P 1.48; D 1.91; V 1.8; M 2.89; I 2.23; L 2.21; W 1.35; G 1.98; S 2.86; Q 1.73; A 1.37; H 2.16; K 2.12; F 1.46; R 2; T 1.74; N 1.59; Y 1.71; C 1.77
R8: Y 2.15; N 2.94; W 2.87; H 2.72; L 2.34; F 2.45; I 2.79; E 3.56; C 2.17; M 2.67; P 2.71; S 2.55; T 3.15; V 2.02; K 2.37; Q 2.83; D 3.9; A 2.67; G 2.8
S5: M 2.12; H 2.5; A 1.95; Y 1.88; C 2; L 1.06; G 2.53; R 2.21; N 2.4; K 1.9; T 2.25; F 2.3; P 1.47; D 2.61; V 1.9; Q 2.49; I 2.44; E 3.39
N7: Q 1.51; P 2.21; K 2.25; H 1.91; V 1.22; I 1.58; S 2.09; C 1.06; M 2.71; L 2.24; A 2.93; R 1.56; G 2.26; W 4.28; Y 1.8; T 2.17; E 2.87; D 2.43

Variants of: B2
Experiment: as above
Conditions: c terminus: a fixed tail appended

Protein stability index, by site and new letter:
L18: D 3.38; G 2.06; K 2.51; R 2.81; P 3.34; W 2.18; V 2.62; Q 2.65; I 2.78; N 3.3; M 2.65; T 2.42; H 2.82; A 3.6; S 2.87; F 2.04; Y 2.93; C 2.62; E 3.06
S19: N 3.01; I 2.79; E 2.93; A 2.5; G 2.21; T 2.77; W 1.77; H 2.26; K 2.29; R 2.88; V 3.62; M 2.06; D 2.59; Y 1.89; P 3.06; L 2.33; F 1.99; Q 2.72; C 2.42
A20: W 3.31; Q 1.84; H 2.56; S 3.14; V 1.96; K 3.38; F 1.61; Y 2.18; P 2.6; M 2.35; R 1.49; C 2.14; I 2.85; E 3.03; D 2.83; N 2.55; T 2.5; L 2.04; G 2.37
R22: L 2.68; K 2.33; E 3.31; V 2.26; W 2.01; F 2.52; A 2.57; T 2.62; D 3.09; C 2.76; M 2.16; Q 2.59; I 2.74; G 2.76; P 2.31; S 2.81; Y 2.62; N 2.77; H 2.97
R17: V 2.31; K 2.58; Y 2.27; F 2.02; H 2.73; T 2.91; N 3.2; C 2.25; W 1.42; S 3.01; D 3.18; L 2.29; M 2.42; I 2.81; E 3.04; A 2.89; Q 2.56; P 2.84; G 3.01
T24: Q 2.67; K 3.2; V 2.21; F 1.65; N 2.92; E 3.02; I 2.84; A 2.82; D 3.87; M 2.48; C 2.51; R 3.13; W 1.73; L 1.76; G 3.09; P 2.17; Y 2.08; H 2.39; S 2.54
D21: W 1.62; L 1.8; Y 1.6; S 3.05; F 2.34; A 2.43; T 2.61; P 2.06; G 2.08; V 1.52; I 1.23; M 1.96; N 2.54; H 3.32; E 2.53; K 2.06; R 2.02; Q 2.91; C 2.77
L16: P 2.94; T 3.02; N 2.57; W 2.56; M 2.67; Q 2.93; V 2.49; Y 2.19; R 3.27; S 3.52
L23: E 4.03; H 3.21; F 2.13; P 2.67; G 2.58; C 2.51; W 2.03; T 2.55; Y 2.44; M 3.06; A 2.96; K 3.43; D 3.38; I 2.62; N 2.87; Q 3.12; S 2.73; R 3.21
